Test [1] addresses T1, human C4.4a natively expressed on tumor cell lines (human, UniProt O95274 31-326).
T1 construct: whole, on cells; also called NCI H292; NCI H322
T1 sequence (looked up): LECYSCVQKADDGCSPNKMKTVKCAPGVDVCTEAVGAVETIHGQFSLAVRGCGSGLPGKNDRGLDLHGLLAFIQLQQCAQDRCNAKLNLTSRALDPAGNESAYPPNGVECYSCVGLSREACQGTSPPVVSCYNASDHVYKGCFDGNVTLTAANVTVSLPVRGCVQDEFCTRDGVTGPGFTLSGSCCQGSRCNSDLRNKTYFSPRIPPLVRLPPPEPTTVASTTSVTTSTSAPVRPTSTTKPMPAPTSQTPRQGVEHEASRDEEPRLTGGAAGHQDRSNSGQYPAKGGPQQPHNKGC
Put plainly: FACS titration of IgG1 on NCI H292 cells. The procedure: FACS titration was performed in a 96 well microtiter plate, in which serial dilutions of the primary antibody in a volume of 50 W of FACS buffer (3% FCS, in PBS) were mixed with 50 μl of a cell suspension consisting of 2×10^5 cells/ml which had been detached with Cell Dissociation Solution (1×) Non-enzymatic (Sigma), and resuspended in FACS buffer. Incubation was performed at 4° C. for 1 hour with agitation. Cells were pelleted, washed with FACS buffer and resuspended in 100 μl/well of Phycoerythrin labeled goat anti human IgG (Dianova) solution in FACS buffer. Incubation and washing was performed as before. Analysis of cell-bound antibodies was done at the respective detection wavelength using the FACS Array device. EC₅₀ values were determined from fluorescence medians of duplicates using Swift 8.0 software.

The target of test [2] is T2, murine C4.4a on transfected CHO-S:mC4.4a cells (mouse, UniProt Q91YK8 33-343).
T2 construct: full length GPI-anchored form, stably transfected; also called Mouse C4.4a:CHO; mC4.4a: CHO
T2 sequence: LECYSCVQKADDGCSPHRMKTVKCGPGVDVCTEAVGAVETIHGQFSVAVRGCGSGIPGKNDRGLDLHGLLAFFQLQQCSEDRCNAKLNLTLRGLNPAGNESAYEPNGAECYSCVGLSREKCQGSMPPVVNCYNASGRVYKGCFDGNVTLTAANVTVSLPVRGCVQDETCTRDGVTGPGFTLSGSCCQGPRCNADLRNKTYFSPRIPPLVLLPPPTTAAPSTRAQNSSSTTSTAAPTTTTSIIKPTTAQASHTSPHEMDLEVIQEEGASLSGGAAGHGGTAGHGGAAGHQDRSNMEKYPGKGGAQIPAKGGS
Put plainly: FACS titration of IgG1 on CHO-S:mC4.4a cells.

In test [3] the target is T3, recombinant soluble human C4.4a (human, UniProt O95274 31-308).
T3 construct: recombinant, soluble, purified protein; also called hC4.4a; full length C4.4a
T3 sequence: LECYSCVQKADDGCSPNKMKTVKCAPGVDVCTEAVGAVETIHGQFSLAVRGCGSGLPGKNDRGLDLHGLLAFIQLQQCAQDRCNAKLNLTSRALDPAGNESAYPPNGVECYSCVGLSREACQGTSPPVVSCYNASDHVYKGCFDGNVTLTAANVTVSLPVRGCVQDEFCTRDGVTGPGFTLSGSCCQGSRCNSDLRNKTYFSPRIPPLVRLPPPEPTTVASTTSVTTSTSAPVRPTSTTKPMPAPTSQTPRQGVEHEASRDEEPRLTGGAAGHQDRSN
Put plainly: SPR (Biacore T100), IgG1 captured by anti-human Fc, soluble C4.4a injected, 1:1 fit. As to the method:
(§1) Binding affinities of anti C4.4 antibodies were determined by surface plasmon resonance analysis on a Biacore T100 instrument (GE Healthcare Biacore, Inc.). Antibodies were immobilized onto a CM5 sensor chip through an indirect capturing reagent, anti-human IgG Fc. Reagents from the “Human Antibody Capture Kit” (BR-1008-39, GE Healthcare Biacore, Inc.) were used as described by the manufacturer. Approximately 5000 RU monoclonal mouse anti-human IgG (Fc) antibody were immobilized per cell. Anti C4.4 antibodies were injected at a concentration of 5 μg/ml at 10 μl/min for 10 sec to reach a capturing level of approximately 200 to 600 RU. Various concentrations (400 nM, 200 nM, 100 nM, 50 nM, 25 nM, 12.5 nM, 6.25 nM, and 3.12 nM) in HEPES-EP buffer (GE Healthcare Biacore, Inc.) of human or murine C4.4a were injected over immobilized anti C4.4a antibodies at a flow rate of 60 μl/min for 3 minutes and the dissociation was allowed for 10 minutes. Sensograms were generated after in-line reference cell correction followed by buffer sample subtraction. The dissociation equilibrium constant (KD) was calculated based on the ratio of association (kₒₙ) and dissociation rated (koff) constants, obtained by fitting sensograms with a first order 1:1 binding model using Biavaluation Software (version 4.0).
(In general: In SPR one partner is held on a chip, and binding of the other changes the refractive index at the surface.)

The target of test [4] is T4, recombinant soluble murine C4.4a (mouse, UniProt Q91YK8 33-343, limits assumed).
T4 construct: also called mouse C4.4a; mC4.4a
T4 sequence (looked up): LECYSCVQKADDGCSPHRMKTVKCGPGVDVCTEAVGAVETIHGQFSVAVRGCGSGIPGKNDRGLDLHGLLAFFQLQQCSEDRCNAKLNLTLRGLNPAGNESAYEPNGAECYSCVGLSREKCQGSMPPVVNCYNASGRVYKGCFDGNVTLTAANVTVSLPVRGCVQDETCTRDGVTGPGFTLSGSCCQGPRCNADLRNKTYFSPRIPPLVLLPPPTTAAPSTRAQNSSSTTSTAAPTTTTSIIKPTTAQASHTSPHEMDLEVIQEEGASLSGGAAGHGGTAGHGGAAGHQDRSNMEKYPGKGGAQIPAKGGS
Described as above. The procedure: as §1

For test [5], the target named is T5, human C4.4a on transfected A549:hC4.4a cells (human, UniProt O95274 31-326).
T5 sequence: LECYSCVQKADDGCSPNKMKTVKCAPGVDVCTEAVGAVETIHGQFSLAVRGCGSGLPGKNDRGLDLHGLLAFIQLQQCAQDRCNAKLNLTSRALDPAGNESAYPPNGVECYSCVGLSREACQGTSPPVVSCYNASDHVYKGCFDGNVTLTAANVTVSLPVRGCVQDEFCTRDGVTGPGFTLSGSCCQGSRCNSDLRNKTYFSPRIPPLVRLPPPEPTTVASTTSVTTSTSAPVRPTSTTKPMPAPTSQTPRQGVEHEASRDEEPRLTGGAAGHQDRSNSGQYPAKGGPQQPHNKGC
In words: cell-based or functional assay.

B1: B01-5 (antibody, human IgG1, V domains shown)
VH: EVQLLESGGGLVQPGGSLRLSCAASGFTFSNAWMSWVRQAPGKGLEWVSYISSSGSTIYYADSVKGRFTISRDNSKNTLYLQMNSLRAEDTAVYYCAREGLWAFDYWGQGTLVTVSS
VL: QSVLTQPPSVSGAPGQRVTISCTGSSSNIGAGYVVHWYQQLPGTAPKLLIYDNNKRPSGVPDRFSGSKSGTSASLAISGLRSEDEADYYCAAYDDSLSGPVFGGGTKLTVLG
notes: tested as human IgG1; also called B01-05
As usually defined, the EC50 is the midpoint of the concentration-response curve. As a reminder, the Kd is the constant that tells how readily two partners part at equilibrium. B1: the EC50 turned out to be 0.05 nM in test [1] and 1.2 nM in test [2]. Also, the results for the Kd in test [3] and in test [4] were 4 nM and 10 nM, respectively.

B2: B01-10 (antibody, human IgG1, V domains shown)
VH: EVQLLESGGGLVQPGGSLRLSCAASGFTFSSAWMSWVRQAPGKGLEWVSYISSSGSTIYYADSVKGRFTISRDNSKNTLYLQMNSLRAEDTAVYYCAREGLWAFDYWGQGTLVTVSS
VL: QSVLTQPPSVSGAPGQRVTISCTGSSSNIGAGYVVHWYQQLPGTAPKLLIYDNNKRPSGVPDRFSGSKSGTSASLAISGLRSEDEADYYCAAYDDSLSGPVFGGGTKLTVLG
notes: tested as human IgG1
Consider B2, for which the “internalization t½ [min] into A549:hC4.4a cells (CypHer 5E labeled antibody)” value (shortened to “internalization t½”) in test [5] is 30 min. Also, the results for the EC50 in test [1] and in test [2] were 0.1 nM and 0.43 nM, respectively. Moreover, the Kd in test [3] was found to be 4 nM; in test [4] it was 1 nM.

B3: B01-3 (antibody, human IgG1, V domains shown)
VH: EVQLLESGGGLVQPGGSLRLSCAASGFTFSNAWMSWVRQAPGKGLEWVSYISSSGSTIYYADSVKGRFTISRDNSKNTLYLQMNSLRAEDTAVYYCAREGLWAFDYWGQGTLVTVSS
VL: ESVLTQPPSVSGAPGQRVTISCTGSSSNIGAGYVVHWYQQLPGTAPKLLIYDNNKRPSGVPDRFSGSKSGTSASLAISGLRSEDEADYYCAAWDDRLNGPVFGGGTKLTVLG
notes: tested as human IgG1; also called B01-03
On to B3, for which, in test [5], the “internalization t½” value was 55 min. In addition, the EC50 in test [1] was found to be 0.06 nM; in test [2], 0.36 nM. For the same molecule, the results for the Kd in test [3] and in test [4] were 60 nM and 120 nM, respectively.

B4: D02-6 (antibody, human IgG1, V domains shown)
VH: EVQLLESGGGLVQPGGSLRLSCAASGFTFSDYQMTWIRQTPGKGLEWVSGISWNGGSTHYADSVKGRFTISRDNSKNTLYLQMNSLRAEDTAVYYCAKGDYLVYSSYYFKSWGQGTLVTVSS
VL: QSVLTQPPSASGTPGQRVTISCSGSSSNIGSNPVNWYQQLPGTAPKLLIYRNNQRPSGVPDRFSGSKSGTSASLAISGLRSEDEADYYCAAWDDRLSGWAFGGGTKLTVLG
notes: tested as human IgG1; also called D02-06
Turning to B4, in test [5], the “internalization t½” value stood at 39 min. Besides, the figures for the EC50 in test [1] and in test [2] were 0.02 nM and 1 nM, respectively. The Kd in test [3] was found to be 6 nM; in test [4], 21 nM.

B5: D02-13 (antibody, human IgG1, V domains shown)
VH: EVQLLESGGGLVQPGGSLRLSCAASGFTFSSYQMTWIRQAPGKGLEWVSGISWNGGSTHYADSVKGRFTISRDNSKNTLYLQMNSLRAEDTAVYYCAKGDYLVYKSYYFKSWGQGTLVTVSS
VL: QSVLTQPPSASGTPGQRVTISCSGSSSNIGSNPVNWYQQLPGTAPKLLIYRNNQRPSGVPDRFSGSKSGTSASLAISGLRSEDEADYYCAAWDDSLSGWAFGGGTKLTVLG
notes: tested as human IgG1
Regarding B5, the EC50 was 0.12 nM in test [1] and 2 nM in test [2]. For the same molecule, the Kd came to 2 nM in test [3] and 42 nM in test [4].

B6: D02-7 (antibody, human IgG1, V domains shown)
VH: EVQLLESGGGLVQPGGSLRLSCAASGFTFSDYQMTWIRQTPGKGLEWVSGISWNGGSTHYADSVKGRFTISRDNSKNTLYLQMNSLRAEDTAVYYCAKGDYLVYKSYYFKSWGQGTLVTVSS
VL: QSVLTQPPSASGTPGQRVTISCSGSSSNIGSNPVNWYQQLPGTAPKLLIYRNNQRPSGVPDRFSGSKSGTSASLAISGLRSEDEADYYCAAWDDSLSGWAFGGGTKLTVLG
notes: tested as human IgG1; also called D02-07
On to B6, for which, in test [5], the “internalization t½” value turned out to be 33 min. Further, the EC50 is 0.03 nM in test [1] and 0.78 nM in test [2]. The Kd in test [3] amounted to 9 nM; in test [4], 22 nM.

B7: D02-11 (antibody, V domains shown)
VH: EVQLLESGGGLVQPGGSLRLSCAASGFTFSDYQMTWIRQTPGKGLEWVSGISWNGGSTHYADSVKGRFTISRDNSKNTLYLQMNSLRAEDTAVYYCAKGDYLVYSSYYFKSWGQGTLVTVSS
VL: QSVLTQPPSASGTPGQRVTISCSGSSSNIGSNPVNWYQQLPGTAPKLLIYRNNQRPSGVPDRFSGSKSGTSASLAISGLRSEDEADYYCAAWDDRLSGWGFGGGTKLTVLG
notes: tested as human IgG1
In the case of B7, the “internalization t½” value in test [5] amounted to 22 min. Further, the EC50 came out at 0.01 nM in test [1] and 1.7 nM in test [2]. Moreover, the Kd in test [3] is 10 nM; in test [4], 24 nM.
